Source: paper PMC9249791, “Molecular dissection of the glutamine synthetase-GlnR nitrogen regulatory circuitry in Gram-positive bacteria” (Nature Communications, 2022)
Where “and” joins values, the source holds several entries; their conditions need not be identical. Equal entries are not always repeated. Where no end group is shown, it is not given here.

B3: Bacillus subtilis glutamine synthetase (enzyme, B. subtilis)
chain: MAKYTREDIEKLVKEENVKYIRLQFTDILGTIKNVEIPVSQLGKALDNKVMFDGSSIEGFVRIEESDMYLYPDLNTFVIFPWTAEKGKVARFICDIYNPDGTPFEGDPRNNLKRILKEMEDLGFSDFNLGPEPEFFLFKLDEKGEPTLELNDKGGYFDLAPTDLGENCRRDIVLELEEMGFEIEASHHEVAPGQHEIDFKYAGAVRSCDDIQTFKLVVKTIARKHGLHATFMPKPLFGVNGSGMHCNLSLFKNGVNAFFDENADLQLSETAKHFIAGIVKHATSFTAVTNPTVNSYKRLVPGYEAPCYVAWSAQNRSPLIRIPASRGISTRVEVRSVDPAANPYLALSVLLAAGLDGIKNKLEAPAPIDRNIYVMSKEERMENGIVDLPATLAEALEEFKSNEVMVKALGEHLFEHFIEAKEIEWDMFRTQVHPWEREQYMSQY
notes: glutamine synthetase (GS, class GSI-alpha) of B. subtilis; gene bought from Genscript, in pET15b; Dodecamer as apo protein; tetradecamer (14 copies) in the complexes with TnrA, GlnR and the GlnR C-tail peptide; The His-tag was removed only for crystallography; also called Bs GS; source: E. coli C41(DE3), purified (cobalt NTA); copies: 12

How the values were obtained:
[1] = target: Listeria monocytogenes glutamine synthetase (L. monocytogenes); assay: cryo-EM structure; GS (0.75-1.0 mg/mL) with 2.5 or 5 mM GlnR C-tail peptide, 30 min at rt; Buffer B (12.5 mM Tris pH 7.5, 20 mM glutamine, 5 mM MgCl2, 150 mM NaCl, 2.5% glycerol, 1 mM BME)
[2] = target: Listeria monocytogenes glutamine synthetase (L. monocytogenes); assay: cryo-EM structure; apo GS without peptide, 0.9-1.0 mg/mL, exchanged into Buffer B
[3] = target: fluoresceinated Lm GlnR C-tail peptide (L. monocytogenes); assay: fluorescence polarisation; FBI-GS against the corresponding fluoresceinated GlnR C-tail; 25 mM Tris pH 7.5, 100 mM NaCl, 5 mM MgCl2, 20 mM glutamine; three technical repeats
Pp GS = target: T1, Pp GS (Paenibacillus polymyxa, UniProt A0A0F0G8G2); assay: X-ray crystal structure […] Å; assay type: binding; conditions: formed in situ from 5 mM ATP and 5 mM Met-Sox with 5 mM MgCl2; with Met-Sox-P
T1 construct: gene glnA2; full-length, synthetic gene in pET15b, N-terminal His-tag (removed by thrombin for crystallography), E. coli C41(DE3)
T1 sequence (A0A0F0G8G2 1-442): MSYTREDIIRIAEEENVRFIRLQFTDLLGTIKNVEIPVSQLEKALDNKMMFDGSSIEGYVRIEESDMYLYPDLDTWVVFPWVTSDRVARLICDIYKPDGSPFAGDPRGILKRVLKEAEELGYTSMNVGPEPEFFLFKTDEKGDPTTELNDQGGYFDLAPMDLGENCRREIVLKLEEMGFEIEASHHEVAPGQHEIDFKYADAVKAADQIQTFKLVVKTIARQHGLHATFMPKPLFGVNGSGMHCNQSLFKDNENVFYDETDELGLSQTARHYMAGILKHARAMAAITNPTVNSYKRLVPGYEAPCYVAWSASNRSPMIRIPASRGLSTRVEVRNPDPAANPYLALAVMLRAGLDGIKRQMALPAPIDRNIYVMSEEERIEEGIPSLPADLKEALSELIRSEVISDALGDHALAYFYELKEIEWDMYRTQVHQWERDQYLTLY

[4] = target: Sa GlnR(1-87), His-tag removed (crystallography) (S. aureus) (UniProt Q53687); assay: crystal structure; GlnR(1-87) with a 21-mer operator DNA (protein:DNA 1:1.5); GlnR dimer on the DNA
[5] = target: Staphylococcus aureus glutamine synthetase, His-tag removed (crystallography) (S. aureus); assay: crystal structure; GS reacted with 5 mM MgCl2, 5 mM ATP and 5 mM Met-Sox (Met-Sox-P-ADP transition state complex); hanging drop, rt
[6] = target: Paenibacillus polymyxa glutamine synthetase, His-tag removed (crystallography) (P. polymyxa); assay: as above
[7] = target: Paenibacillus polymyxa glutamine synthetase (P. polymyxa); assay: cryo-EM structure; GS (0.75-1.0 mg/mL) with 2.5 or 5 mM GlnR C-tail peptide, 30 min at rt; Buffer B (12.5 mM Tris pH 7.5, 20 mM glutamine, 5 mM MgCl2, 150 mM NaCl, 2.5% glycerol, 1 mM BME)
[8] = target: Paenibacillus polymyxa glutamine synthetase (P. polymyxa); assay: cryo-EM structure; apo GS without peptide, 0.9-1.0 mg/mL, exchanged into Buffer B
[9] = target: fluoresceinated Pp GlnR C-tail peptide (P. polymyxa); assay: fluorescence polarisation; FBI-GS against the corresponding fluoresceinated GlnR C-tail; 25 mM Tris pH 7.5, 100 mM NaCl, 5 mM MgCl2, 20 mM glutamine; three technical repeats
[10] = target: Staphylococcus aureus glutamine synthetase (S. aureus); assay: cryo-EM structure; GS (0.75-1.0 mg/mL) with 2.5 or 5 mM GlnR C-tail peptide, 30 min at rt; Buffer B (12.5 mM Tris pH 7.5, 20 mM glutamine, 5 mM MgCl2, 150 mM NaCl, 2.5% glycerol, 1 mM BME)
[11] = target: Staphylococcus aureus glutamine synthetase (S. aureus); assay: cryo-EM structure; apo GS without peptide, 0.9-1.0 mg/mL, exchanged into Buffer B
[12] = target: fluoresceinated Sa GlnR C-tail peptide (S. aureus); assay: fluorescence polarisation; FBI-GS against the corresponding fluoresceinated GlnR C-tail; 25 mM Tris pH 7.5, 100 mM NaCl, 5 mM MgCl2, 20 mM glutamine; three technical repeats
[13] = target: Listeria monocytogenes glutamine synthetase, His-tag removed (crystallography) (L. monocytogenes); assay: crystal structure; GS reacted with 5 mM MgCl2, 5 mM ATP and 5 mM Met-Sox (Met-Sox-P-ADP transition state complex); hanging drop, rt
[14] = target: B3; assay: cryo-EM structure; GS (0.75-1.0 mg/mL) with 2.5 or 5 mM GlnR C-tail peptide, 30 min at rt; Buffer B (12.5 mM Tris pH 7.5, 20 mM glutamine, 5 mM MgCl2, 150 mM NaCl, 2.5% glycerol, 1 mM BME); conditions: both partners purified
[15] = target: B3; assay: negative stain EM; Bs GS mixed 1:1 with FL TnrA; 25 mM Tris pH 7.5, 200 mM NaCl, 5% glycerol, 1 mM MgCl2, 5 mM glutamine; 2D class averages; conditions: both partners purified
[16] = target: the molecule itself; assay: negative stain EM; apo Bs GS alone; 25 mM Tris pH 7.5, 200 mM NaCl, 5% glycerol, 1 mM MgCl2; 20-50 μg/mL; 2D class averages
[17] = target: the molecule itself; assay: cryo-EM structure; GS (0.75-1.0 mg/mL) with 2.5 or 5 mM GlnR C-tail peptide, 30 min at rt; Buffer B (12.5 mM Tris pH 7.5, 20 mM glutamine, 5 mM MgCl2, 150 mM NaCl, 2.5% glycerol, 1 mM BME)
[18] = target: fluoresceinated Bs GlnR C-tail peptide (B. subtilis); assay: fluorescence polarisation; FBI-GS against the corresponding fluoresceinated GlnR C-tail; 25 mM Tris pH 7.5, 100 mM NaCl, 5 mM MgCl2, 20 mM glutamine; three technical repeats
[19] = target: the molecule itself; assay: crystal structure; GlnR(1-87) with a 21-mer operator DNA (protein:DNA 1:1.5); GlnR dimer on the DNA
Sa GlnR(1-87) = target: T2, Sa GlnR(1-87) (S. aureus, UniProt Q53687 1-87); assay: FP
T2 chain: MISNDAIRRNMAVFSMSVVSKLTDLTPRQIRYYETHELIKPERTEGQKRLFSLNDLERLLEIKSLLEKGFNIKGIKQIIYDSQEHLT

Molecule: Listeria monocytogenes glutamine synthetase (enzyme)
- stoichiometry N [1]: 14
- stoichiometry N [2]: 12
- Kd [3]: 27.2 µM

Molecule: Nc1ncnc2c1ncn2[C@@H]1O[C@H](COP(=O)(O)OP(=O)(O)O)[C@@H](O)[C@H]1O [ADP]
- X-ray crystal structure 1.98 Å (Pp GS): densities for Met-Sox-P and ADP were clearly observed in each enzyme

Molecule: Sa GlnR(1-87), His-tag removed (crystallography) (from UniProt Q53687 1-87) (domain or fragment)
- stoichiometry N [4]: 2

Molecule: Staphylococcus aureus glutamine synthetase, His-tag removed (crystallography) (enzyme)
- stoichiometry N [5]: 12

Molecule: Paenibacillus polymyxa glutamine synthetase, His-tag removed (crystallography) (enzyme)
- stoichiometry N [6]: 12

Molecule: Paenibacillus polymyxa glutamine synthetase (enzyme)
- stoichiometry N [7]: 14 and 12
- stoichiometry N [8]: 12 and 14
- Kd [9]: 18.7 µM

Molecule: Staphylococcus aureus glutamine synthetase (enzyme)
- stoichiometry N [10]: 12
- stoichiometry N [11]: 12
- Kd [12]: 7.2 µM

Molecule: Listeria monocytogenes glutamine synthetase, His-tag removed (crystallography) (enzyme)
- stoichiometry N [13]: 12

B1: Bs GlnR C-tail peptide (peptide)
peptide: MQAGRFQRGNTFRQGDMSRFFH
notes: C-tail residues of GlnR of B. subtilis; also called Bs GlnR peptide; source: synthetic peptide, bought: Genscript
- binding result [14]: binds

B2: Bacillus subtilis TnrA, full length (natural protein, B. subtilis, UniProt Q45666 1-110, looked up)
chain: MTTEDHSYKDKKVISIGIVSELTGLSVRQIRYYEERKLIYPQRSSRGTRKYSFADVERLMDIANKREDGVQTAEILKDMRKKEQMLKNDPQVRKKMLEGQLNAHFRYKNR
notes: TnrA transcription regulator (MerR-like) of B. subtilis; Its production is not described here; also called FL TnrA; Bs TnrA
- binding result [15]: binds

Molecule: B3
- stoichiometry N [16]: 12
- stoichiometry N [17]: 14
- Kd [18]: 4.2 µM

B4: Lm GlnR(1-87), His-tag removed (crystallography) (domain or fragment, L. monocytogenes, UniProt L8DSZ4 1-87, looked up)
chain: MSEKEIRRSMPLFPIGPVMKLTDLTARQIRYYEDQGLIHPARNQGNHRLYSLQDIDVLLEIKDYLNDGLNIAGIKKMYQMQQKESKE
notes: GlnR of L. monocytogenes (122 residues), residues 1-87; Dimer on the 21 bp operator DNA, generated by crystallographic symmetry; also called Lm GlnR-DNA complex; source: E. coli C41(DE3), purified (cobalt NTA, thrombin digestion, Ni-NTA); not shown: His-tag, N-terminal, cleaved
- stoichiometry N [19]: 2

Molecule: fluorescein-KPIGETLPINRGDLSRFIK [fluoresceinated Sa GlnR C-tail peptide]
- Kd (Sa GlnR(1-87)): 56 µM
